In the supplement of paper PMC9112550, “Optimization of the antimicrobial peptide Bac7 by deep mutational scanning” (BMC Biology, 2022):

Each sequence was assayed on Escherichia coli TOP10 (assay: shrunken log2 fold change of peptide-encoding DNA abundance (4.5 h post-induction vs induction); higher = less antimicrobial activity (less host growth inhibition)). Details: time post-induction: 4.5 h; library: site-saturation at positions 5, 18, 19, 20.
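Further: peptides expressed intracellularly from a pBAD plasmid library in pooled LB shake-flask culture, induced with 0.3% L-arabinose, DNA abundance read by NGS, three biological replicates, DESeq2 with apeglm shrinkage.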

Going from RRIRVRPPRLPRPRPRPDDQPRP to RRIRTRPPRLPRPRPRPNTVPRP, the “shrunken log2 fold change” value falls from -0.00455 to -0.305.

Compared with RRIRWRPPRLPRPRPRPTFAPRP, RRIRKRPPRLPRPRPRPIGTPRP is lower in “shrunken log2 fold change” value: 0.327 for the first, 0.105 for the second.

First: RRIRERPPRLPRPRPRPIIVPRP
Second: RRIRMRPPRLPRPRPRPKELPRP
The “shrunken log2 fold change” value of the first is lower: -0.149 for the first, 0.642 for the second.

RRIRDRPPRLPRPRPRPDLMPRP and RRIRARPPRLPRPRPRPCKMPRP are within 0.2 log units of each other in “shrunken log2 fold change” value: 0.043 for the first, 0.145 for the second.

First: RRIRCRPPRLPRPRPRPAEPPRP
Second: RRIRCRPPRLPRPRPRPSLHPRP
The “shrunken log2 fold change” value of the first is higher: 0.368 for the first, -0.289 for the second.

Going from RRIRPRPPRLPRPRPRPEINPRP to RRIRTRPPRLPRPRPRPRAEPRP, the “shrunken log2 fold change” value rises from -0.264 to 0.28.

First: RRIRNRPPRLPRPRPRPHMIPRP
Second: RRIRTRPPRLPRPRPRPSVWPRP
The “shrunken log2 fold change” value of the first is lower: -0.168 for the first, 0.172 for the second.

Going from RRIRYRPPRLPRPRPRPDPAPRP to RRIRCRPPRLPRPRPRPYNDPRP, the “shrunken log2 fold change” value falls from -0.164 to -0.456.

First: RRIRDRPPRLPRPRPRPFNDPRP
Second: RRIRRRPPRLPRPRPRPEFLPRP
The “shrunken log2 fold change” value of the first is lower: -0.158 for the first, 0.441 for the second.

First: RRIRNRPPRLPRPRPRPVDYPRP
Second: RRIRARPPRLPRPRPRPSNYPRP
The “shrunken log2 fold change” value of the first is higher: -0.0368 for the first, -0.901 for the second.

RRIRQRPPRLPRPRPRPQSVPRP and RRIRVRPPRLPRPRPRPNSFPRP are within 0.2 log units of each other in “shrunken log2 fold change” value: 0.0191 for the first, -0.0668 for the second.

Compared with RRIRSRPPRLPRPRPRPWSHPRP, RRIRMRPPRLPRPRPRPGTCPRP is higher in “shrunken log2 fold change” value: -0.174 for the first, 0.851 for the second.

Going from RRIRARPPRLPRPRPRPSYTPRP to RRIRWRPPRLPRPRPRPFEFPRP, the “shrunken log2 fold change” value falls from 1.56 to -0.182.

Going from RRIRYRPPRLPRPRPRPAQYPRP to RRIRYRPPRLPRPRPRPTKFPRP, the “shrunken log2 fold change” value rises from -0.562 to -0.316.

First: RRIRQRPPRLPRPRPRPFDFPRP
Second: RRIRCRPPRLPRPRPRPNMYPRP
The “shrunken log2 fold change” value of the first is higher: -0.404 for the first, -0.916 for the second.

Compared with RRIRARPPRLPRPRPRPGRFPRP, RRIRVRPPRLPRPRPRPCQYPRP is lower in “shrunken log2 fold change” value: 1.11 for the first, -0.53 for the second.

RRIRNRPPRLPRPRPRPGMNPRP and RRIRVRPPRLPRPRPRPTGHPRP are within 0.2 log units of each other in “shrunken log2 fold change” value: -0.02 for the first, 0.0149 for the second.

RRIRLRPPRLPRPRPRPFTGPRP and RRIRQRPPRLPRPRPRPYCVPRP are within 0.2 log units of each other in “shrunken log2 fold change” value: -0.204 for the first, -0.00867 for the second.

Going from RRIRWRPPRLPRPRPRPAHIPRP to RRIRTRPPRLPRPRPRPCYLPRP, the “shrunken log2 fold change” value falls from -0.0509 to -0.468.

RRIRKRPPRLPRPRPRPKQWPRP and RRIRSRPPRLPRPRPRPGLWPRP are within 0.2 log units of each other in “shrunken log2 fold change” value: 0.216 for the first, 0.266 for the second.

RRIRGRPPRLPRPRPRPHTLPRP and RRIRHRPPRLPRPRPRPGSRPRP are within 0.2 log units of each other in “shrunken log2 fold change” value: -0.22 for the first, -0.168 for the second.

Compared with RRIRVRPPRLPRPRPRPFDEPRP, RRIRLRPPRLPRPRPRPGCSPRP is higher in “shrunken log2 fold change” value: -0.242 for the first, 0.0547 for the second.

RRIRDRPPRLPRPRPRPRICPRP and RRIRHRPPRLPRPRPRPFQGPRP are within 0.2 log units of each other in “shrunken log2 fold change” value: 0.00396 for the first, -0.0278 for the second.

Going from RRIRWRPPRLPRPRPRPQCWPRP to RRIRARPPRLPRPRPRPEQIPRP, the “shrunken log2 fold change” value rises from 0.0793 to 0.419.

First: RRIRCRPPRLPRPRPRPSVYPRP
Second: RRIRQRPPRLPRPRPRPISVPRP
The “shrunken log2 fold change” value of the first is lower: -0.697 for the first, 0.136 for the second.

Compared with RRIRNRPPRLPRPRPRPVHMPRP, RRIRARPPRLPRPRPRPYHDPRP is lower in “shrunken log2 fold change” value: -0.0948 for the first, -0.365 for the second.

Going from RRIRCRPPRLPRPRPRPRNVPRP to RRIRLRPPRLPRPRPRPWKVPRP, the “shrunken log2 fold change” value rises from -0.156 to 0.0854.

Compared with RRIRMRPPRLPRPRPRPISAPRP, RRIRCRPPRLPRPRPRPEVQPRP is higher in “shrunken log2 fold change” value: 0.0396 for the first, 0.267 for the second.

Going from RRIRTRPPRLPRPRPRPNYWPRP to RRIRHRPPRLPRPRPRPHHYPRP, the “shrunken log2 fold change” value falls from -0.208 to -0.533.

Compared with RRIRTRPPRLPRPRPRPGHQPRP, RRIRNRPPRLPRPRPRPRFWPRP is higher in “shrunken log2 fold change” value: -0.199 for the first, 0.395 for the second.

First: RRIRYRPPRLPRPRPRPWNIPRP
Second: RRIRARPPRLPRPRPRPEWCPRP
The “shrunken log2 fold change” value of the first is lower: -0.01 for the first, 0.72 for the second.

RRIRSRPPRLPRPRPRPLYTPRP and RRIRIRPPRLPRPRPRPRIEPRP are within 0.2 log units of each other in “shrunken log2 fold change” value: -0.422 for the first, -0.246 for the second.

RRIRHRPPRLPRPRPRPGMEPRP and RRIRLRPPRLPRPRPRPTLVPRP are within 0.2 log units of each other in “shrunken log2 fold change” value: -0.0685 for the first, -0.0392 for the second.

First: RRIRLRPPRLPRPRPRPYHVPRP
Second: RRIRMRPPRLPRPRPRPMLLPRP
The “shrunken log2 fold change” value of the first is lower: -1.29 for the first, 0.0485 for the second.

Compared with RRIRPRPPRLPRPRPRPFNRPRP, RRIRCRPPRLPRPRPRPIVAPRP is higher in “shrunken log2 fold change” value: -0.436 for the first, 0.0801 for the second.

Going from RRIRNRPPRLPRPRPRPFDNPRP to RRIRNRPPRLPRPRPRPTSYPRP, the “shrunken log2 fold change” value rises from -0.465 to 0.00322.

RRIRRRPPRLPRPRPRPNWSPRP and RRIRDRPPRLPRPRPRPEWGPRP are within 0.2 log units of each other in “shrunken log2 fold change” value: -0.0147 for the first, 0.0825 for the second.

Compared with RRIRIRPPRLPRPRPRPFWSPRP, RRIRVRPPRLPRPRPRPSMGPRP is lower in “shrunken log2 fold change” value: 0.0627 for the first, -0.399 for the second.

Going from RRIRFRPPRLPRPRPRPYIPPRP to RRIRFRPPRLPRPRPRPSQDPRP, the “shrunken log2 fold change” value rises from -1.8 to 0.0128.

RRIRHRPPRLPRPRPRPRWMPRP and RRIRNRPPRLPRPRPRPAYQPRP are within 0.2 log units of each other in “shrunken log2 fold change” value: -0.209 for the first, -0.146 for the second.

RRIRTRPPRLPRPRPRPSWGPRP and RRIRSRPPRLPRPRPRPCRRPRP are within 0.2 log units of each other in “shrunken log2 fold change” value: -0.179 for the first, -0.241 for the second.

First: RRIRQRPPRLPRPRPRPEFRPRP
Second: RRIRWRPPRLPRPRPRPISTPRP
The “shrunken log2 fold change” value of the first is higher: 0.0728 for the first, -0.399 for the second.

Going from RRIRFRPPRLPRPRPRPGMTPRP to RRIRKRPPRLPRPRPRPRYWPRP, the “shrunken log2 fold change” value rises from -0.142 to 0.173.

Compared with RRIRYRPPRLPRPRPRPHVDPRP, RRIRFRPPRLPRPRPRPWDIPRP is higher in “shrunken log2 fold change” value: -0.588 for the first, -0.0124 for the second.

Compared with RRIRFRPPRLPRPRPRPYMTPRP, RRIRVRPPRLPRPRPRPTNTPRP is higher in “shrunken log2 fold change” value: -0.49 for the first, -0.175 for the second.

Going from RRIRARPPRLPRPRPRPGPQPRP to RRIRVRPPRLPRPRPRPFLCPRP, the “shrunken log2 fold change” value falls from 0.367 to -0.0159.

Going from RRIRKRPPRLPRPRPRPDHPPRP to RRIRVRPPRLPRPRPRPPSRPRP, the “shrunken log2 fold change” value rises from 0.0127 to 0.743.

RRIRERPPRLPRPRPRPGLEPRP and RRIRLRPPRLPRPRPRPHGFPRP are within 0.2 log units of each other in “shrunken log2 fold change” value: -0.114 for the first, 0.000509 for the second.

First: RRIRWRPPRLPRPRPRPGKCPRP
Second: RRIRYRPPRLPRPRPRPLKCPRP
The “shrunken log2 fold change” value of the first is higher: 0.0425 for the first, -0.301 for the second.

RRIRHRPPRLPRPRPRPLHGPRP and RRIRYRPPRLPRPRPRPDNNPRP are within 0.2 log units of each other in “shrunken log2 fold change” value: 0.00793 for the first, -0.189 for the second.

Going from RRIRVRPPRLPRPRPRPNIIPRP to RRIRWRPPRLPRPRPRPHCDPRP, the “shrunken log2 fold change” value rises from -0.303 to 0.135.

RRIRMRPPRLPRPRPRPKWAPRP and RRIRRRPPRLPRPRPRPYSIPRP are within 0.2 log units of each other in “shrunken log2 fold change” value: 0.0251 for the first, 0.0088 for the second.

Going from RRIRFRPPRLPRPRPRPASIPRP to RRIRARPPRLPRPRPRPRNQPRP, the “shrunken log2 fold change” value rises from -0.231 to -0.012.

RRIRYRPPRLPRPRPRPTSQPRP and RRIRVRPPRLPRPRPRPATYPRP are within 0.2 log units of each other in “shrunken log2 fold change” value: 0.054 for the first, -0.0417 for the second.

Going from RRIRRRPPRLPRPRPRPPICPRP to RRIRLRPPRLPRPRPRPDMPPRP, the “shrunken log2 fold change” value falls from 0.152 to -0.269.

Going from RRIRKRPPRLPRPRPRPLVSPRP to RRIRHRPPRLPRPRPRPNTNPRP, the “shrunken log2 fold change” value falls from 0.0109 to -0.74.

Compared with RRIRSRPPRLPRPRPRPKWTPRP, RRIRHRPPRLPRPRPRPLNKPRP is lower in “shrunken log2 fold change” value: -0.0493 for the first, -0.677 for the second.

Compared with RRIRVRPPRLPRPRPRPMDRPRP, RRIRMRPPRLPRPRPRPHQRPRP is higher in “shrunken log2 fold change” value: -0.308 for the first, 0.236 for the second.

First: RRIRWRPPRLPRPRPRPNYWPRP
Second: RRIRVRPPRLPRPRPRPCGFPRP
The “shrunken log2 fold change” value of the first is higher: 1.21 for the first, 0.624 for the second.

First: RRIRWRPPRLPRPRPRPFINPRP
Second: RRIRGRPPRLPRPRPRPKESPRP
The “shrunken log2 fold change” value of the first is lower: -0.635 for the first, 0.981 for the second.

First: RRIRERPPRLPRPRPRPGRQPRP
Second: RRIRVRPPRLPRPRPRPYNAPRP
The “shrunken log2 fold change” value of the first is higher: 0.0676 for the first, -0.521 for the second.

First: RRIRKRPPRLPRPRPRPTFWPRP
Second: RRIRSRPPRLPRPRPRPSFMPRP
The “shrunken log2 fold change” value of the first is higher: 0.36 for the first, -0.335 for the second.

For RRIRTRPPRLPRPRPRPSQPPRP, the “shrunken log2 fold change” value was -0.16.
